B1: library; numbered along this chain (parent)
chain: MATDAALRRLLRLHRTEIAVAVDSAFPLLHALADHDVVPEDKFQETLHLKEKEGCPQAFHALLSWLLTQDSTAILDFWRVLFKDYNLERYGRLQPILDSFPKDVDLSQPRKGRKPPAVPKALVPPPRLPTKRKASEEARAAAPAALTPRGTASPGSQLKAKPPKKPESSAEQQRLPLGNGIQTMSASVQRAVAMSSGDVPGARGAVEGILIQQVFESGGSKKCIQVGGEFYTPSKFEDSGSGKNKARSSSGPKPLVRAKGAQGAAPGGGEARLGQQGSVPAPLALPSDPQLHQKNEDECAVCRDGGELICCDGCPRAFHLACLSPPLREIPSGTWRCSSCLQATVQEVQPRAEEPRPQEPPVETPLPPGLRSAGEEVRGPPGEPLAGMDTTLVYKHLPAPPSAAPLPGLDSSALHPLLCVGPEGQQNLAPGARCGVCGDGTDVLRCTHCAAAFHWRCHFPAGTSRPGTGLRCRSCSGDVTPAPVEGVLAPSPARLAPGPAKDDTASHEPALHRDDLESLLSEHTFDGILQWAIQSMARPAAPFPS

Variants of: B1
Experiment: AIRE transcriptional activation functional score (insulin promoter-GFP; nonsense median 0, synonymous median 1) (normalised score); higher = higher AIRE activity (more reporter activation)
Conditions: with insulin promoter-GFP reporter in HEK293
Procedure, shortened: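 Functional scores come from comparing select with non-select enrichment of each variant and subtracting wild type. Codon-optimized AIRE NNN-codon libraries across three regions were integrated via Bxb1 recombinase into HEK293 landing-pad cells with an insulin core promoter-GFP reporter, and integrants sorted at day 7 were expanded 7 days before top 10% GFP and unselected populations were tile-sequenced. Variants needed 10 counts per million in non-select, and values were rescaled to nonsense median 0 and synonymous median 1 before averaging over biological replicates.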

AIRE transcriptional activation functional score, by site and new letter:
G374: R 1.31; I 1.18; V 1.07; T 0.972; A 1.33; W 1.65; P 1.1; K 0.524; Y 0.519; L 1.29; H 0.816; D 0.16; F 2.03; S 1.24; C 1.55
E383: L 1.22; R 1.05; V 1.13; I 0.922; A 1.32; Q 0.74; G 1.09; D 0.97; K 0.473; F 1.58; H 0.859; P 0.887; W 0.951; Y 1.27; C 1.18; T 1.49; M 0.564; S 1.01
L370: R 0.586; T 1.03; I 1.25; C 1.12; D 0.434; F 0.823; P 1.08; Q 0.241; G 1.08; V 1.03; A 0.668; E -0.238; S 1.32; W 0.504; K 0.92; H 0.944
S372: E 1.3; F 1.02; T 0.951; A 1.16; I 0.653; K 1.48; L 0.938; H 1.13; R 1.16; D 1.06; V 1.33; P 1.07; Y 1.25; N 1.2; C 1.31; W 1.62; G 0.89
G369: Y 0.617; K 1.35; N 1.1; D -0.344; W 0.914; S 0.939; C 1.25; Q 1.43; R 0.772; A 0.861; V 0.854; T 0.912; I 1.18; L 1.46; F 1.46; E 1.68
L385: S 0.77; G 1; Q 1.24; E 1.15; Y 1.34; F 0.899; H 1.13; V 0.955; D -0.182; T 0.874; N 0.689; K 0.616; A 0.341; P 0.451; R 0.699; C 1.42; I 0.603; W 1.56
G382: A 0.906; F 1.11; H 1.29; K 0.449; C 0.802; S 0.979; E 1.19; L 0.669; Y 1.13; V 1.22; I 0.702; W 1.38; R 1.03; D 0.898; P 0.74; N 0.95; Q 1.24; T 0.841
E376: K 1.15; I 1.36; Y 0.702; G 0.776; N 1.32; F 0.443; W 1.23; A 0.899; D 0.34; R 1.12; T 0.984; Q 1.62; V 1.24; P 1.25; L 1.17; H 1.36; S 1.08
R378: D 0.631; P 0.932; S 0.975; T 0.986; Q 0.825; K 1.17; M 0.0153; I 0.795; Y 0.657; A 0.851; C 0.601; H 0.92; L 0.904; G 0.98; E 0.928; N 1.28; F 1.1; V 0.869
R371: Y 1.39; S 0.653; L 1.5; M -0.128; I 0.173; V 1.27; T 0.753; D 1; W 1.77; P 0.614; G 1.55
P368: I 1.29; C 1.55; S 1.27; R 1.04; E 0.965; N 1.58; A 1.2; Q 0.776; H 1.18; D 0.975; G 1.05; L 1.01; V 1.13; T 0.983; F 1.63; K 1.38
P384: S 0.379; M 1.35; Q 1.01; T 1.17; N 0.179; E 1.39; K 0.962; I 0.998; A 0.99; W 1.61; L 1.14; R 1.19; G 1.62; V 0.849; H 1.05
P381: V 1.15; A 0.912; N 1.07; I 0.705; R 1.25; M 1.06; D 0.696; W 0.42; G 1.11; Y 1.39; H 1.03; S 0.87; Q 1.35; K 1.04; C 0.894; L 1.13; F 1.15; E 1.26; T 0.929
P380: A 0.626; W 1.39; C 0.499; S 0.998; T 1.45; M 1.34; L 0.882; N 1.52; R 0.936; H 0.534; Q 1.16; I 1.14; K 0.944; F 0.369; E 0.934; V 0.912; D 0.476; G 0.801; Y 1.42
E375: D 1.04; G 0.999; P 1.21; S 0.907; F 1.55; K 1.35; I 1.08; H 1.6; V 1.47; C 0.539; L 1.47; R 1; T 0.785; A 1.18; Q 1.05; N 1.89; Y 1.51
P367: V 0.854; K 1.04; W 1.97; Y 1.39; Q 1.26; S 1.13; M 0.302; N 0.956; R 1.06; L 0.763; T 1.17
A386: C 0.57; H 1.44; R 1.1; S 0.756; T 1.02; F 1.74; K 1.1; E 1.21; M 1.53; I 0.514; L 1.36; P 0.921; Y 1.55; D 0.793; V 0.968; N 0.757; Q 0.654; W 1.47; G 0.732
V377: E 1.81; M 0.944; C 1.32; F 1.15; G 1.16; I 1.15; L 1.19; S 0.916; W 1.82; A 0.734; Q 0.854; P 1.28; D 0.248; R 1.09; K 0.952; T 1.37; N 1.2
G387: L 1.35; A 1.19; I 1.59; R 1.1; F 1.52; P 0.291; C 0.799; K 0.344
G379: L 1.41; K 1.19; E 1; C 0.863; I 1.26; S 1.37; A 0.877; V 0.691; D 1.24; Y 1.47; T 0.911; P 0.992; W 1.23; N 1.23; R 0.719
A373: S 0.969; L 0.776; F 0.264; V 0.766; W -0.241; T 1.63; H 1.23; G 0.987; E 1.28; R 0.736; P 1.13; K 1.02; D 1.02; I 0.836

Reference: the supplement of paper PMC12667976
